Assay results: patent US10000743B2, “2-deoxy-scyllo-inosose reductase” (Asahi Kasei Chemicals Corporation, priority 2013, dated 2018)
Marks after values point to notes of the source that are not given here.

Tests used:
[1] = biological target: T1, DOI reductase from Burkholderia terrae strain AKC-020 (Paraburkholderia terrae, UniProt A0ABM7TVX3); assay: Substrate specificity of purified DOI reductase (oxidation reaction, NAD+ to NADH at 340 nm); assay type: biochemical; settings: substrate 5 mM
Experimental: A quantity of 10 μL of enzyme solution was added to 980 μL of 0.1 M buffer containing 1.0 μmol of NAD^+ and prewarmed for five minutes at 25° C. A quantity of 10 μL of each 0.1 M substrate was added and mixed immediately. The rate of increase in the absorbance (wavelength 340 nm) over two minutes was measured by spectrophotometer, and the activity by each substrate was compared. […] In the table, N.D. means that no reaction could be detected.

[2] = biological target: T1, DOI reductase from Burkholderia terrae strain AKC-020; assay: Km value and Vmax of purified DOI reductase; assay type: biochemical
Experimental: (§1) The protein concentration of the enzyme solution was also measured by the Bradford method.

[3] = substrate: O[C@@H]1[C@@H](O)[C@H](O)C[C@@H](O)[C@H]1O; assay: purified protein, by the assay type; settings: other: oxidation reaction
[4] = substrate: NC(=O)c1ccc[n+]([C@@H]2O[C@H](COP(=O)(O)OP(=O)(O)OC[C@H]3O[C@@H](n4cnc5c(N)ncnc54)[C@H](O)[C@@H]3O)[C@@H](O)[C@H]2O)c1; assay: Km value and Vmax of purified DOI reductase; assay type: biochemical, Burkholderia terrae; settings: other: 0.1M Gly-NaOH, pH 9.0
Experimental: as §1

[5] = substrate: O=C1C[C@@H](O)[C@H](O)[C@@H](O)[C@@H]1O; assay: Km value and Vmax of purified DOI reductase; assay type: biochemical, Burkholderia terrae; settings: other: reduction reaction
Experimental: as §1

[6] = Optimum pH of purified DOI reductase (DOI reduction, NADH decrease at 340 nm); assay type: biochemical; settings: buffers of each pH, 25° C.
Experimental: A quantity of 10 μL of 0.1 M DOI was added and mixed immediately. The rate of decrease in the absorbance (wavelength 340 nm) over two minutes was measured by spectrophotometer, and the activity was compared at each pH.

[7] = DOI reducing activity of recombinantly expressed inositol dehydrogenases/DOIR; assay type: biochemical; settings: for DOI reducing activity: expressed in E. coli BL21 (DE3); for catalytic activity to convert 2-deoxy-scyllo-inosose into (−)-vibo-quercitol / reduction of DOI (in words): recombinant expression in Escherichia coli
Experimental: Specifically, the reaction solution composition other than DOI (990 μL) was taken by cuvette and prewarmed for approximately 5 minutes at 25° C. After adding DOI solution (10 μL) and mixing quickly, the rate of decrease in the absorbance (wavelength […]) over two minutes was measured using a spectrophotometer (Shimadzu, UV-2550) regulated to 25° C. with water as the control, and the decrease in absorbance per minute was calculated. Next, each strain was evaluated by calculating the U per mL of crude enzymatic solution, defining the amount that decreases [sic; converts]
Furthermore, inositol dehydrogenase (Sf-Idh) from Sinorhizobium fredii USDA191 is an enzyme that oxidizes myo-inositol, and iolX (Bs-IolX) from Bacillus subtilis 168 is reported to encode an enzyme showing activity on scyllo-inositol. In addition, iolW (Bs-IolW) is said to be an NADPH-dependent inositol dehydrogenase. These six genes were introduced into an expression vector Pet21B(+) (Merck), and expressed by E. coli BL21 (DE3).

[8] = Conversion of DOI to quercitol by enzymes from recombinant E. coli (HPLC, diastereomer excess); settings: for Conversion rate: DOI to quercitol; for (−)-Vibo-quercitol produced: conversion of DOI; for Diastereomer excess of scyllo-quercitol: DOI converted to scyllo-quercitol
Experimental: Specifically, DOI conversion was carried out using a coenzyme regeneration system by formate dehydrogenase (FDH hereinafter, Roche Diagnostics Inc., product no. 244678). […] The reaction solution was incubated for three hours while shaking at 30° C.

[9] = activity relative to the culture broth

## O[C@H]1[C@H](O)[C@@H](O)[C@H](O)[C@@H](O)[C@H]1O [Myo-inositol]
[1]; pH 8.0, 25° C.
  Substrate specificity (oxidation reaction): 3.21 U/mg
[1]; pH 9.0, 25° C.
  Substrate specificity (oxidation reaction): 5.71 U/mg

## O=C1C[C@@H](O)[C@H](O)[C@@H](O)[C@@H]1O [DOI, 2-deoxy-scyllo-inosose]
[2]; reduction reaction
  Vmax to DOI: 116.28 U/mg

## O[C@@H]1[C@@H](O)[C@H](O)C[C@@H](O)[C@H]1O [(−)-vibo-quercitol, (1R,2R,4S,5R)-cyclohexane-1,2,3,4,5-pentol]
[1]; pH 8.0, 25° C.
  Substrate specificity (oxidation reaction): 8.21 U/mg
[1]; pH 9.0, 25° C.
  Substrate specificity (oxidation reaction): 13.93 U/mg
[2]; oxidation reaction
  Vmax to (−)-vibo-quercitol: 16.45 U/mg

B1: DOI reductase from Burkholderia terrae strain AKC-020 (Paraburkholderia terrae) (protein)
chain: MIRIAVLGAGRIGRIHAGNVAASPNAQLVVVADPVESAAKSLATRLGCEASTDPAGVLERKDIDAVVIGTPTDTHITFMLEAVRRGKAVLCEKPIDLDMEKSLAAANEVERQRGRVMLAFNRRFDPTSQAFRNAIDAGDVGEVRQVIISSRDPGMPPRDYVEHSGGIFRDMVIHDLDMARWLLGEEPVEVMAMASRLIDESLEKLTDFDTVMVQLRTASGKQCHINCCREAVYGYDQRMEVSGSKGMLLQENLRPSTIRRWSKEATDVREPLLNFFLERYEAAYKAELEAFVDALNTNSPLPTSVQDGLKALRLADAALESALSGKAVKV
[3]
  Km: 1.60 mM, 16.45 U/mg mM
[4]
  Km: 0.11 mM (0.1M Gly-NaOH, pH 9.0) mM
[5]
  Km: 0.41 mM, 116.28 U/mg mM

B2: DOIR: 2-deoxy-scyllo-inosose reductase from Burkholderia terrae strain AKC-020, amino acid sequence SEQ ID NO: 2 (protein)
chain: B1 chain
modifications: Burkholderia terrae AKC-020
[6]
  pH of maximum activity: 7.0-9.0
[7]; [9]
  DOI reducing activity: 11.2 U/Ml culture
[8]; from recombinant E. coli
  Conversion rate: ≥99%
  (−)-Vibo-quercitol produced: 9.9 mM

B3: Bh-IolG: inositol dehydrogenase from Burkholderia sp. SJ98, homology with DOIR 79% (protein)
chain: MTRIAVLGAGRIGKIHAANVASNSDAKLVVVADPFEGAANSLAEKLGCEASTDCLSVIERDDVDAVVIGTPTDTHIQFMLHAVSKGKAVLCEKPIDLDMKKSLAAAKEVERHDGRVMLAFNRRFDPTSQAFRKAIDDGEVGDVRQVVITSRDPGMPPREYVTHSGGIFRDMVIHDLDLARWFLGEEPIEVMATGSRLVEPSLAEVPDFDTVMLQLRTESGKQCHINCCREAVYGYDQRLEVFGSRGMLLQENLRPSTIRRWSASATDAREPLLNFFLERYEAAYKTELTAFVEALRTNTTFPTSVADGLKALRLADCALESAMSCRSVKV
modifications: Burkholderia sp. SJ98
[7]; [9]
  DOI reducing activity: 11.7 U/Ml culture
[8]; from recombinant E. coli
  Conversion rate: ≥99%
  (−)-Vibo-quercitol produced: 9.9 mM

B4: Ps-Idh: inositol dehydrogenase from Pseudomonas synxantha BG33R, homology with DOIR 68% (protein)
chain: MLRIAVLGAGRIAKIHAANVAAHPNATLVLVADPWREGVDALSTQLGCEAAYDCAAVLNRKDIDAVVIGTPTDTHIDLLLAAVAQGKAVLCEKPIDLDIAKARSAAQTVERQGGKVMLGFNRRFDPDMLRLRQALDAGQIGAVRQVIITSRDPGLAPREYLEHSGGILRDMTIHDFDTARHLLGEEPVQVSAFASRLVDPSLEQIDDYDSVMVLLRTASGKQCHINCCRQAVYGYDQRVEVSGASGVLLTDNHRPSTLRHWSAEHTEALEPLQHFFLERYADAYRNELMQFVDALNEGRELPTGMRDGLYALHLADCALESVKTGRSVAVCYDR
modifications: Pseudomonas synxantha BG33R
[7]; [9]
  DOI reducing activity: 9.8 U/Ml culture
[8]; from recombinant E. coli
  Conversion rate: ≥99%
  (−)-Vibo-quercitol produced: 9.9 mM

B5: BS-IolW: NADPH-dependent inositol dehydrogenase from Bacillus subtilis 168, homology with DOIR 27% (protein, UniProt O32223 1-358, looked up)
scyllo-inositol …: MITLLKGRRKVDTIKVGILGYGLSGSVFHGPLLDVLDEYQISKIMTSRTEEVKRDFPDAEVVHELEEITNDPAIELVIVTTPSGLHYEHTMACIQAGKHVVMEKPMTATAEEGETLKRAADEKGVLLSVYHNRRWDNDFLTIKKLISEGSLEDINTYQVSYNRYRPEVQARWREKEGTATGTLYDLGSHIIDQTLHLFGMPKAVTANVMAQRENAETVDYFHLTLDYGKLQAILYGGSIVPANGPRYQIHGKDSSFIKYGIDGQEDALRAGRKPEDDSWGADVPEFYGKLTTIRGSDKKTETIPSVNGSYLTYYRKIAESIREGAALPVTAEEGINVIRIIEAAMESSKEKRTIMLEH
[7]; using NADPH as coenzyme
  DOI reducing activity: 0.69) (using NADPH as coenzyme) U/Ml culture
[7]
  catalytic activity to convert 2-deoxy-scyllo-inosose into (−)-vibo-quercitol / reduction of DOI (in words): low ability
[8]
  Remaining DOI: 9.9 mM

B6: Pa-Idh: inositol dehydrogenase from Pantoea sp. At-9b, homology with DOIR 58% (protein)
chain: MKIAVLGAGRIGNVHAMNVASNPNVELVAIADPFIDNAIKLTEKYGGKAVKEPMELIESNAVDAVIIATPTDTHVDLMLSAARNGKAVLCEKPVDLNLERAEVACAELKQCDVPVMIAFNRRFDPSAAEMHSAIAKGEVGELHQIMISSRDPGFASMDYLRHSGGIFRDMTIHDFDMARWLLGEEPVQVFASASRMLEPALEPLNDFDTVMVQMITKSGKQCHINCSRQAVYGHDQRIEAYGSAGMLLNDNLRPSTLRRFNKSATDARVPLVHFFLERYADAYRMELEAFISAVKHAKPVPVTPYDGYMALKLADCAQQSAETGLPVQL
modifications: Pantoea sp. At-9b
[7]; [9]
  DOI reducing activity: 8.4 U/Ml culture
[8]; from recombinant E. coli
  Conversion rate: ≥99%
  (−)-Vibo-quercitol produced: 9.9 mM

B7: BS-IolX: iolX enzyme from Bacillus subtilis 168, reported activity on scyllo-inositol, homology with DOIR 36% (protein, UniProt P40332 1-342, looked up)
scyllo-inositol …: MEHQVRCAVLGLGRLGYYHAKNLVTSVPGAKLVCVGDPLKGRAEQVARELGIEKWSEDPYEVLEDPGIDAVIIVTPTSTHGDMIIKAAENGKQIFVEKPLTLSLEESKAASEKVKETGVICQVGFMRRFDPAYADAKRRIDAGEIGKPIYYKGFTRDQGAPPAEFIKHSGGIFIDCSIHDYDIARYLLGAEITSVSGHGRILNNPFMEQYGDVDQALTYIEFDSGAAGDVEASRTSPYGHDIRAEVIGTEGSIFIGTLRHQHVTILSAKGSSFDIIPDFQTRFHEAYCLELQHFAECVRNGKTPIVTDIDATINLEVGIAATNSFRNGMPVQLDVKRAYTGM
[7]; [9]
  DOI reducing activity: 0.13 U/Ml culture
[7]
  catalytic activity to convert 2-deoxy-scyllo-inosose into (−)-vibo-quercitol / reduction of DOI (in words): low ability
[8]
  Remaining DOI: 0.4 mM
[8]; from recombinant E. coli
  Diastereomer excess of scyllo-quercitol: ≥99%
  Conversion rate: 96%
[8]; from recombinant E. coli, listed as Bs-IolX
  Diastereomer excess of scyllo-quercitol: 99%
[8]; from recombinant E. coli, converted into scyllo-quercitol
  scyllo-quercitol produced (printed in the (−)-vibo-quercitol column, footnote *): 9.6* mM
